Results published in patent US20240247080A1, “GLP1/GIP/NPY2 RECEPTOR TRIPLE AGONISTS” (Boehringer Ingelheim International GmbH, priority 2022, published 2024).
Starred links: 1 amine or outer side, 2 acyl side, 3 side chain; linkers in the order of their positions; H or OH if unused. Non-standard residues stand in square brackets, D forms with d. Groups on a side chain read outwards from the residue. No end group written: not given here. *: point of attachment. C20 diacid = O=C(O)CCCCCCCCCCCCCCCCCCC(=O)*; C18 diacid = O=C(O)CCCCCCCCCCCCCCCCC(=O)*; γGlu = O=C(O)[C@H](CCC(=O)[*:2])N[*:1]; εLys = N[C@@H](CCCCN[*:1])C(=O)[*:2]; glu = not defined here; AEEA = NCCOCCOCC(=O)O; Aib = CC(C)(N)C(=O)O

Tests used:
Assay in all cases: cell-based or functional assay
GLP-1 receptor = GLP-1 receptor (human (printed as hGLP1R), UniProt P43220 24-463)
GIP receptor = target: T1, GIP receptor (human (printed as hGIPR), UniProt P48546 22-466)
T1 sequence (looked up): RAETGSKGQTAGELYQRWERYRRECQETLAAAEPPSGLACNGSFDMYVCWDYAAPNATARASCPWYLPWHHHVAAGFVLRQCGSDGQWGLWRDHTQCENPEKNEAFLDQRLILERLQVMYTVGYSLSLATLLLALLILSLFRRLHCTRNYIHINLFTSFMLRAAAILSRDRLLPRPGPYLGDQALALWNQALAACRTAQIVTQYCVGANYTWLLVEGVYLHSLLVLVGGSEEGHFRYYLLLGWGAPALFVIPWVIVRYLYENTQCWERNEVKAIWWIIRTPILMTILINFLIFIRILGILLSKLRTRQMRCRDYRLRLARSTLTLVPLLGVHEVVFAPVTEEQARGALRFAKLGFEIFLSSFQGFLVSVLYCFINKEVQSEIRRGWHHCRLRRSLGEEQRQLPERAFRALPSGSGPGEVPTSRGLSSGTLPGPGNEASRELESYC

NPY2 receptor = target: T2, NPY2 receptor (human (printed as hNPY2R), UniProt P49146 1-381)
T2 sequence (looked up): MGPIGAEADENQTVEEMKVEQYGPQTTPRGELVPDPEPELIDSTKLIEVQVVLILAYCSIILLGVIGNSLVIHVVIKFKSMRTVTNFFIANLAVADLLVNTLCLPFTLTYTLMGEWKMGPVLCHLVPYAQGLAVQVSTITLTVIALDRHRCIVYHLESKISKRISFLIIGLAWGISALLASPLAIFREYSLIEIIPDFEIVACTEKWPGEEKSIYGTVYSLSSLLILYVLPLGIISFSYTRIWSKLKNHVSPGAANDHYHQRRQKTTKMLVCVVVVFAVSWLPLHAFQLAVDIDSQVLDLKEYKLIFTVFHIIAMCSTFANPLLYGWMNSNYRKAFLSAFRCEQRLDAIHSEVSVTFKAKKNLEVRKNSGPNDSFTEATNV

Binder | EC50 hGLP1R 0.5% hP (CreLuc) (GLP-1 receptor) | EC50 hGLP1R 100% hP (CreLuc) (GLP-1 receptor) | EC50 hGIPR 0.5% hP (CreLuc) (GIP receptor) | EC50 hGIPR 100% hP (CreLuc) (GIP receptor) | EC50 hNPY2R 0.5% hP (CreLuc) (NPY2 receptor) | EC50 hNPY2R 100% hP (CreLuc) (NPY2 receptor)
Y[Aib]EGTFTSDYSI[Aib]LEKQAQ[Aib]AFVQWLIK([AEEA-AEEA-Glu-Glu-Glu-C18 diacid])GGPEEGASLRHYYNWLTRQRY-NH2 (also: TFA salt) [Compound 188] | 0.15 nM | 5.93 nM | 0.12 nM | 1.16 nM | 16.9 nM | 105 nM
Y[Aib]EGTFTSDYSI[Aib]LEKQAQ[Aib]EFVQWLIK([γGlu-γGlu-γGlu-γGlu-γGlu-γGlu-C20 diacid])GGPSEGASLRHYYNWLTRQRY-NH2 (also: TFA salt) [Compound 185] | 0.4 nM | 11 nM | 0.33 nM | 5.59 nM | 13.3 nM | 66.8 nM
Y[Aib]EGTFTSDYSI[Aib]LEKQAQ[Aib]EFVQWLIK([γGlu-γGlu-γGlu-γGlu-C20 diacid])GGPSEGASLRHYYNWLTRQRY-NH2 (also: TFA salt) [Compound 194] | 0.29 nM | 14.2 nM | 0.2 nM | 1.83 nM | 13.8 nM | 93.7 nM
Y[Aib]EGTFTSDYSI[Aib]LEEQAQ[Aib]AFVEWLIK([εLys-γGlu-γGlu-γGlu-γGlu-γGlu-C20 diacid])GGPSSGASLRHYYNWLTRQRY-NH2 (also: TFA salt) [Compound 181] | 0.14 nM | 3.23 nM | 0.16 nM | 1.23 nM | 16.5 nM | 102 nM
Y[Aib]EGTFTSDYSI[Aib]LEK(Ac)QAQ[Aib]AFVEWLIK([εLys-glu-γGlu-γGlu-γGlu-γGlu-γGlu-C20 diacid])GGPSSGASLRHYYNWLTRQRY-NH2 (reading uncertain; also: TFA salt) [Compound 192] | 0.13 nM | 2.01 nM | 0.28 nM | 1.95 nM | 20.5 nM | 128 nM
Y[Aib]EGTFTSDYSI[Aib]LEKQAQ[Aib]AFVQWLIK([AEEA-AEEA-γGlu-γGlu-γGlu-γGlu-C20 diacid])GGPEEGASLRHYYNWLTRQRY-NH2 (also: TFA salt) [Compound 193] | 0.36 nM | 20.8 nM | 0.5 nM | 3.4 nM | 13.6 nM | 73.3 nM
Y[Aib]EGTFTSDYSI[Aib]LEKQAQ[Aib]AFVEWLIKGGPSSYASLRHYYNWLTRQRY-NH2 (not fully specified (residue 28); also: TFA salt) [Compound 183] | 0.22 nM | 12.8 nM | 0.28 nM | 6.83 nM | 9.34 nM | 56.6 nM
YXEGTFTSDYSIXLEKQAQXEFVQWLIKGGPSEGASLRHYYNWLTRQRY (Aib at 2, 13, 20; K28 side chain carries C18DA-E-E-E-E-E (SEQ ID NO: 636); C-terminal amide) [Compound 176] | 0.29 nM | 9.56 nM | 0.68 nM | 3.37 nM | 30.4 nM | 197 nM
YXEGTFTSDYSIXLEKQAQXAFVEWLIKGGPSSGASLRXYYNWLTRQRY (Aib at 2, 13, 20, 39; K28 side chain carries C20DA-gGlu-gGlu-gGlu-gGlu-gGlu-gGlu-eLys; C-terminal amide) [Compound 182] | 0.13 nM | 2.73 nM | 0.21 nM | 1.39 nM | 70.4 nM | 256 nM
YXEGTFTSDYSIXLEKQAQXAFVEWLIKGGPSSPASLRHYYNWLTRQRY (Aib at 2, 13, 20; K28 side chain carries C18DA-gGlu-gGlu-gGlu-gGlu-gGlu; C-terminal amide) [Compound 180] | 0.1 nM | 3.61 nM | 0.2 nM | 3.88 nM | 19.6 nM | 107 nM
YXEGTFTSDYSIXLEKQAQXAFVQWLIKGGPSEGASLRHYYNWLTRXRY (Aib at 2, 13, 20; bHGln (beta-homo-L-glutamine) at 47; K28 side chain carries C20DA-gGlu-gGlu-gGlu-gGlu-gGlu-gGlu-eLys; C-terminal amide) [Compound 186] | 0.11 nM | 1.25 nM | 0.11 nM | 0.77 nM | > 99.9 nM | 904 nM
YXEGTFTSDYSIXLEKQAQXAFVEWLIKGGPSSGASLRHYYNWLTRQRX (Aib at 2, 13, 20; Tle at 49; K28 side chain carries C20DA-gGlu-gGlu-gGlu-gGlu-gGlu-gGlu-eLys; C-terminal amide) [Compound 191] | 0.17 nM | 2.92 nM | 0.23 nM | 2 nM | > 99.9 nM | > 999 nM
YXEGTFTSDYSIXLEKQAQXAFVEWLIKGGPSSGASLRHYYNWRTRQRY (Aib at 2, 13, 20; D-Arg at 44; K28 side chain carries C20DA-gGlu-gGlu-gGlu-gGlu-Glu-gGlu-eLys (so in the source); C-terminal amide) [Compound 190] | 0.1 nM | 1.09 nM | 0.13 nM | 1.18 nM | > 100 nM | > 1000 nM
YXEGTFTSDYSIXLEKQAQXAFVEWLIKGGPSSGASLRHYXNWLTRQRY (Aib at 2, 13, 20, 41; K28 side chain carries C20DA-gGlu-gGlu-gGlu-gGlu-gGlu-gGlu-eLys; C-terminal amide) [Compound 184] | 0.18 nM | 1.87 nM | 0.28 nM | 1.37 nM | 46 nM | 125 nM
YXEGTFTSDYSIXLEKQAQXAFVEWLIKGGPSSGASLRHYYNLLTRQRY (Aib at 2, 13, 20; K28 side chain carries C20DA-gGlu-gGlu-gGlu-gGlu-gGlu-gGlu-eLys; C-terminal amide) [Compound 195] | 0.13 nM | 1.9 nM | 0.25 nM | 1.42 nM | 26.1 nM | 137 nM
Y[Aib]EGTFTSDYSI[Aib]LEKQAQ[Aib]AFVEWLIKGGPSSPASLRHYYNWLTRQRY-NH2 (not fully specified (residue 28); also: TFA salt) [Compound 178] | 0.08 nM | 5.51 nM | 0.12 nM | 5.86 nM | 13.3 nM | 115 nM
Y[Aib]EGTFTSDYSI[Aib]LEKQAQ[Aib]AFVQWLIK([AEEA-AEEA-Glu-Glu-Glu-Glu-C18 diacid])GGPEEGASLRHYYNWLTRQRY-NH2 (also: TFA salt) [Compound 177] | 0.16 nM | 12.5 nM | 0.28 nM | 2.83 nM | 18.7 nM | 115 nM
Y[Aib]EGTFTSDYSI[Aib]LEKQAQ[Aib]AFVEWLIK([AEEA-AEEA-γGlu-γGlu-γGlu-γGlu-C20 diacid])GGPSSPASLRHYYNWLTRQRY-NH2 (also: TFA salt) [Compound 175] | 0.1 nM | 5.3 nM | 0.29 nM | 1.53 nM | 10.5 nM | 48.7 nM
Y[Aib]EGTFTSDYSI[Aib]LEKQAQ[Aib]AFVQWLIK([εLys-γGlu-γGlu-γGlu-γGlu-γGlu-C20 diacid])GGPSEYASLRHYYNWLTRQRY-NH2 (also: TFA salt) [Compound 189] | 0.21 nM | 10.2 nM | 0.31 nM | 5.06 nM | 8.03 nM | 45.8 nM
Y[Aib]EGTFTSDYSI[Aib]LEKQAQ[Aib]EFVQWLIK([Glu-Glu-Glu-Glu-Glu-Glu-C18 diacid])GGPSEGASLRHYYNWLTRQRY-NH2 (also: TFA salt) [Compound 179] | 0.22 nM | 10.5 nM | 0.38 nM | 3.34 nM | 18.5 nM | 111 nM
